Laboratory results published in EP2345737A1 (Harant, Hanna, dated 2011).
Bridges are numbered along the chain shown (N, C = ends). Where no end group is shown, it is not given here.

Tests used:
[1] = molecular target: T1, VEGF-A truncated nascent chain (amino-terminal 52 amino acid residues of human VEGF-A plus six histidine … (human)); assay: phage panning, released His-tagged nascent chain on Ni-NTA beads, DTT elution; selection only
T1 construct: Translated in vitro in wheat germ lysate without stop codon; also called short VEGF-A nascent chains; bait polypeptide
T1 chain: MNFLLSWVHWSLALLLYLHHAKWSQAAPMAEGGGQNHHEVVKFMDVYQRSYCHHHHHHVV

[2] = molecular target: T2, VEGF-A truncated nascent chain (52 amino-terminal residues of VEGF-A plus His6 and two valines) translated in … (human, ε-labelled biotinylated lysine incorporated from Transcend tRNA (positions not stated)); assay: phage panning, biotinylated ribosome-bound nascent chain in streptavidin wells; selection only
T2 construct: in one setting the ribosomes were dissociated with RNAse ONE before elution; also called VEGF-A nascent chains; VEGF-A-translating ribosomes
T2 chain: T1 chain

[3] = molecular target: T1, VEGF-A truncated nascent chain …; assay: phage panning by co-sedimentation with ribosome-bound nascent chain, with subtraction on non-translating ribosomes; selection only

B1: PMTSPPS (SEQ ID NO:3), displayed on M13 phage (peptide)
chain: CPMTSPPSC
modifications: disulfide 1-9
notes: From the Ph.D.-C7C library; on phage; not shown: M13 pIII minor coat protein, peptide at its amino-terminus
- binding result [1]: binds

B2: AFPGMKA (SEQ ID NO: 18), displayed on M13 phage (peptide)
chain: CAFPGMKAC
modifications: disulfide 1-9; not fully specified
notes: as for B1
- binding result [2]: binds

B3: LTLPNRT (SEQ ID NO: 17), displayed on M13 phage (peptide)
chain: CLTLPNRTC
modifications: disulfide 1-9; not fully specified
notes: as for B1
- binding result [2]: binds

B4: PPPFLPL (SEQ ID NO: 20), displayed on M13 phage (peptide)
chain: CPPPFLPLC
modifications: disulfide 1-9
notes: as for B1
- binding result [2]: binds

B5: SPRPSLS (SEQ ID NO:15), displayed on M13 phage (peptide)
chain: CSPRPSLSC
modifications: disulfide 1-9
notes: as for B1
- binding result [1]: binds

B6: SPHLIPS (SEQ ID NO: 27), displayed on M13 phage (peptide)
chain: CSPHLIPSC
modifications: disulfide 1-9
notes: as for B1
- binding result [2]: binds

B7: LALSAAR (SEQ ID NO: 25), displayed on M13 phage (peptide)
chain: CLALSAARC
modifications: disulfide 1-9; not fully specified
notes: as for B1
- binding result [2]: binds

B8: EPASSRH (SEQ ID NO: 37), displayed on M13 phage (peptide)
chain: CEPASSRHC
modifications: disulfide 1-9; not fully specified
notes: as for B1
- binding result [2]: binds

B9: FLFRLF (SEQ ID NO:2), displayed on M13 phage (peptide)
chain: CFLFRLFC
modifications: disulfide 1-8; not fully specified
notes: From the Ph.D.-C7C library; on phage; A hexapeptide; not shown: M13 pIII minor coat protein, peptide at its amino-terminus
- binding result [1]: binds

B10: NPISLHL (SEQ ID NO:4), displayed on M13 phage (peptide)
chain: CNPISLHLC
modifications: disulfide 1-9
notes: as for B1
- binding result [1]: binds

B11: SYPLRPP (SEQ ID NO: 23), displayed on M13 phage (peptide)
chain: CSYPLRPPC
modifications: disulfide 1-9; also: displayed on M13 phage, fused to pIII
notes: as for B1
- binding result [2]: binds

B12: PLHARLP (SEQ ID NO:1), displayed on M13 phage (peptide)
chain: CPLHARLPC
modifications: disulfide 1-9
notes: as for B1
- binding result [3]: binds

B13: SSTLHPS (SEQ ID NO: 31), displayed on M13 phage (peptide)
chain: CSSTLHPSC
modifications: disulfide 1-9; also: displayed on M13 phage, fused to pIII
notes: as for B1
- binding result [2]: binds

B14: LPVSSSS (SEQ ID NO: 24), displayed on M13 phage (peptide)
chain: CLPVSSSSC
modifications: disulfide 1-9; not fully specified
notes: as for B1
- binding result [2]: binds

B15: TASSVKL (SEQ ID NO:5), displayed on M13 phage (peptide)
chain: CTASSVKLC
modifications: disulfide 1-9; also: displayed on M13 phage, fused to pIII
notes: as for B1
- binding result [1]: binds

B16: LGALSHT (SEQ ID NO:14), displayed on M13 phage (peptide)
chain: CLGALSHTC
modifications: disulfide 1-9; not fully specified
notes: as for B1
- binding result [1]: binds

B17: SVSGSPS (SEQ ID NO:6), displayed on M13 phage (peptide)
chain: CSVSGSPSC
modifications: disulfide 1-9; also: displayed on M13 phage, fused to pIII
notes: as for B1
- binding result [1]: binds

B18: NLSSSWI (SEQ ID NO:9), displayed on M13 phage (peptide)
chain: CNLSSSWIC
modifications: disulfide 1-9
notes: as for B1
- binding result [1]: binds

B19: EIRTPSV (SEQ ID NO: 21), displayed on M13 phage (peptide)
chain: CEIRTPSVC
modifications: disulfide 1-9; not fully specified
notes: as for B1
- binding result [2]: binds

B20: LPRPLHS (SEQ ID NO: 42), displayed on M13 phage (peptide)
chain: CLPRPLHSC
modifications: disulfide 1-9; not fully specified
notes: as for B1
- binding result [2]: binds

B21: HPMFPLS (SEQ ID NO: 28), displayed on M13 phage (peptide)
chain: CHPMFPLSC
modifications: disulfide 1-9; not fully specified
notes: as for B1
- binding result [2]: binds

B22: PANFGPS (SEQ ID NO: 16), displayed on M13 phage (peptide)
chain: CPANFGPSC
modifications: disulfide 1-9
notes: as for B1
- binding result [2]: binds

B23: SSPLLGR (SEQ ID NO:12), displayed on M13 phage (peptide)
chain: CSSPLLGRC
modifications: disulfide 1-9
notes: as for B1
- binding result [1]: binds

B24: PVAPSTH (SEQ ID NO:13), displayed on M13 phage (peptide)
chain: CPVAPSTHC
modifications: disulfide 1-9
notes: as for B1
- binding result [1]: binds

B25: SGSSPWH (SEQ ID NO:7), displayed on M13 phage (peptide)
chain: CSGSSPWHC
modifications: disulfide 1-9
notes: as for B1
- binding result [1]: binds

B26: SPSLLPA (SEQ ID NO:11), displayed on M13 phage (peptide)
chain: CSPSLLPAC
modifications: disulfide 1-9
notes: as for B1
- binding result [1]: binds

B27: PHTRGFM (SEQ ID NO: 33), displayed on M13 phage (peptide)
chain: CPHTRGFMC
modifications: disulfide 1-9
notes: as for B1
- binding result [2]: binds

B28: HALSSRT (SEQ ID NO: 32), displayed on M13 phage (peptide)
chain: CHALSSRTC
modifications: disulfide 1-9; not fully specified
notes: as for B1
- binding result [2]: binds

B29: WASQAHP (SEQ ID NO: 30), displayed on M13 phage (peptide)
chain: CWASQAHPC
modifications: disulfide 1-9; also: displayed on M13 phage, fused to pIII
notes: as for B1
- binding result [2]: binds

B30: NASRTTL (SEQ ID NO: 48), displayed on M13 phage (peptide)
chain: CNASRTTLC
modifications: disulfide 1-9; not fully specified
notes: as for B1
- binding result [2]: binds

B31: PLHPPQP (SEQ ID NO: 41), displayed on M13 phage (peptide)
chain: CPLHPPQPC
modifications: disulfide 1-9
notes: as for B1
- binding result [2]: binds

B32: SLNSDLF (SEQ ID NO: 26), displayed on M13 phage (peptide)
chain: CSLNSDLFC
modifications: disulfide 1-9
notes: as for B1
- binding result [2]: binds

B33: PSALAFY (SEQ ID NO: 47), displayed on M13 phage (peptide)
chain: CPSALAFYC
modifications: disulfide 1-9
notes: as for B1
- binding result [2]: binds

B34: EASSSRA (SEQ ID NO: 45), displayed on M13 phage (peptide)
chain: CEASSSRAC
modifications: disulfide 1-9; not fully specified
notes: as for B1
- binding result [2]: binds

B35: VSGSSPQ (SEQ ID NO: 43), displayed on M13 phage (peptide)
chain: CVSGSSPQC
modifications: disulfide 1-9; also: displayed on M13 phage, fused to pIII
notes: as for B1
- binding result [2]: binds

B36: SRSALES (SEQ ID NO: 46), displayed on M13 phage (peptide)
chain: CSRSALESC
modifications: disulfide 1-9
notes: as for B1
- binding result [2]: binds

B37: LPPLQRL (SEQ ID NO: 19), displayed on M13 phage (peptide)
chain: CLPPLQRLC
modifications: disulfide 1-9; not fully specified
notes: as for B1
- binding result [2]: binds

B38: PSLFPSM (SEQ ID NO: 44), displayed on M13 phage (peptide)
chain: CPSLFPSMC
modifications: disulfide 1-9
notes: as for B1
- binding result [2]: binds

B39: LTRPSPS (SEQ ID NO:10), displayed on M13 phage (peptide)
chain: CLTRPSPSC
modifications: disulfide 1-9; not fully specified
notes: as for B1
- binding result [1]: binds

B40: HPSSTHQ (SEQ ID NO:8), displayed on M13 phage (peptide)
chain: CHPSSTHQC
modifications: disulfide 1-9; not fully specified
notes: as for B1
- binding result [1]: binds

B41: FPATAAS (SEQ ID NO: 36), displayed on M13 phage (peptide)
chain: CFPATAASC
modifications: disulfide 1-9; not fully specified
notes: as for B1
- binding result [2]: binds

B42: SPSTSSR (SEQ ID NO: 34), displayed on M13 phage (peptide)
chain: CSPSTSSRC
modifications: disulfide 1-9
notes: as for B1
- binding result [2]: binds

B43: HPMFWPI (SEQ ID NO: 29), displayed on M13 phage (peptide)
chain: CHPMFWPIC
modifications: disulfide 1-9; not fully specified
notes: as for B1
- binding result [2]: binds

B44: DYPWPLP (SEQ ID NO: 40), displayed on M13 phage (peptide)
chain: CDYPWPLPC
modifications: disulfide 1-9; not fully specified
notes: as for B1
- binding result [2]: binds

B45: HALPAPD (SEQ ID NO: 49), displayed on M13 phage (peptide)
chain: CHALPAPDC
modifications: disulfide 1-9; not fully specified
notes: as for B1
- binding result [2]: binds

B46: TLSHTRT (SEQ ID NO: 35), displayed on M13 phage (peptide)
chain: CTLSHTRTC
modifications: disulfide 1-9; also: displayed on M13 phage, fused to pIII
notes: as for B1
- binding result [2]: binds

B47: HAWTFNS (SEQ ID NO: 22), displayed on M13 phage (peptide)
chain: CHAWTFNSC
modifications: disulfide 1-9; not fully specified
notes: as for B1
- binding result [2]: binds
